Experimental data published in EP4667491A1 (Genome and Company, dated 2025).
Where two headings read alike, the source gives them in different places.

T1: human CNTN4 expressed on the cell surface (human, UniProt Q8IWV2 19-1000)
T1 construct: whole, on cells; also called human CNTN4 cell
T1 sequence (looked up): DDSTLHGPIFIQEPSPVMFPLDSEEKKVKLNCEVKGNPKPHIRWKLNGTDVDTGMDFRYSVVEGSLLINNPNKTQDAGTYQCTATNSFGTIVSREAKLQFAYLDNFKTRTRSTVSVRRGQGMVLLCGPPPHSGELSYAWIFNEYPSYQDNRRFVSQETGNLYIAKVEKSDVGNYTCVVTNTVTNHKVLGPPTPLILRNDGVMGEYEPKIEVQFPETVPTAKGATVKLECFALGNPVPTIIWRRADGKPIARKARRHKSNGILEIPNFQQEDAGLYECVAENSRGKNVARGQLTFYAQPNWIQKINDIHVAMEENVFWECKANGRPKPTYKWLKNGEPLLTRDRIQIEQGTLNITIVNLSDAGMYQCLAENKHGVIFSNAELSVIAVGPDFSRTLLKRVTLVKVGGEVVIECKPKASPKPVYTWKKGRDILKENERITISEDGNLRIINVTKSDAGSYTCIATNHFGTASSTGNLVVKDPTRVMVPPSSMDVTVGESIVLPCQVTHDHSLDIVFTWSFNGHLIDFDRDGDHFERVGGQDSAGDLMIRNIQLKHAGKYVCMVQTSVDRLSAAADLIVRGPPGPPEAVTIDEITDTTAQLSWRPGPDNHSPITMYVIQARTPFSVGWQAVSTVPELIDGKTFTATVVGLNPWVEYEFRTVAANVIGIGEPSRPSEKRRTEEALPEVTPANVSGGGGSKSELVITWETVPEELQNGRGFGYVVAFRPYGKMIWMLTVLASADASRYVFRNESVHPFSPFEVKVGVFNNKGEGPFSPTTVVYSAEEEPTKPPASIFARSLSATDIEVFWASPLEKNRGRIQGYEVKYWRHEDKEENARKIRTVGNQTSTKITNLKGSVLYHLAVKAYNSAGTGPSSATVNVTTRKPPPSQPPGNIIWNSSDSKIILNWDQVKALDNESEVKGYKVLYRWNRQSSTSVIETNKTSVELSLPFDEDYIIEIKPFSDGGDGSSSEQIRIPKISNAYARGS

T2: Human CNTN4 (His-tagged) (human, UniProt Q8IWV2 19-1000, limits assumed)
T2 construct: also called human CNTN4 protein; not shown: His tag
T2 sequence (looked up): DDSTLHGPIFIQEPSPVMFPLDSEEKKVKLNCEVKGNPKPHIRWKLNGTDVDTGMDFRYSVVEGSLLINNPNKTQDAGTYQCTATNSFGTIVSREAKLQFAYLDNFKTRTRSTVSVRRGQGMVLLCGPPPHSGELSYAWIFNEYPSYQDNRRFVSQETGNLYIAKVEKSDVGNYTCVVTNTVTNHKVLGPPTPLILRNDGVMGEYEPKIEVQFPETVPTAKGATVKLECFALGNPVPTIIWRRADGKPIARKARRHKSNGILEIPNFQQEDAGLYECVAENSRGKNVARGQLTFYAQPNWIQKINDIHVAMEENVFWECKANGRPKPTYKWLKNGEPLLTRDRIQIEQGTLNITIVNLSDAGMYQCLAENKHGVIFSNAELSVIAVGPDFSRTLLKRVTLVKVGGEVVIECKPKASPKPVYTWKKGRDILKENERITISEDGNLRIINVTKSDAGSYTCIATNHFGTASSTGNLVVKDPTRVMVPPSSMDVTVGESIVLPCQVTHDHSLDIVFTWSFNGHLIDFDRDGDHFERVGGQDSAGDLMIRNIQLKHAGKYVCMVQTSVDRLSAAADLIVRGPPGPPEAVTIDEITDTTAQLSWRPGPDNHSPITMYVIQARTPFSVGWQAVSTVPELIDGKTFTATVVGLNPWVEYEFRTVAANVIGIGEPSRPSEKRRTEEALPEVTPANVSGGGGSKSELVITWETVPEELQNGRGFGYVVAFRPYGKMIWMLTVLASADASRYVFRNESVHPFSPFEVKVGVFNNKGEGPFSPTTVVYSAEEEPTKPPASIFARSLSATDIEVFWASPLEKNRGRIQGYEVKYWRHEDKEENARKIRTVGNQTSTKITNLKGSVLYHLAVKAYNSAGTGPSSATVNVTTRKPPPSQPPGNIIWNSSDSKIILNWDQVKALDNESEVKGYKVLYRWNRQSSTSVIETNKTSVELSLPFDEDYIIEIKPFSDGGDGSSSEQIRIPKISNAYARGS


What was measured:
[1] = target: T1, human CNTN4 expressed on the cell …; assay: flow cytometry; IgG on human CNTN4-overexpressing HEK293 cells
Human CNTN4 (His-tagged) [2] = target: T2, Human CNTN4 (His-tagged); assay: ELISA; His-tagged human CNTN4 captured by anti-His antibody, anti-human IgG-HRP
[3] = target: T1, human CNTN4 expressed on the cell …; assay: flow cytometry; IgG on human CNTN4-overexpressing HEK293 cells; remark: listed apart in the source
Human CNTN4 (His-tagged) [4] = target: T2, Human CNTN4 (His-tagged); assay: SPR; IgG captured on CM5 chip, His-tagged human CNTN4 as analyte, 1:1 fit
Human CNTN4 (His-tagged) [5] = target: T2, Human CNTN4 (His-tagged); assay: ELISA; His-tagged human CNTN4 captured by anti-His antibody, anti-human IgG-HRP; remark: listed apart in the source

Binder	EC50 [1] [nM]	EC50 (Human CNTN4 (His-tagged) [2]) [nM]	EC50 [3] [nM]	TOP MFI [3] [MFI]	Kd (Human CNTN4 (His-tagged) [4]) [nM]	EC50 (Human CNTN4 (His-tagged) [5]) [nM]
A114-IgG antibody (antibody, V domains shown, VH fused to CH1, hinge, CH2 and CH3 of human IgG4 (S228P); also called A114-IgG Ab; Al14-IgG Ab) VH: not shown VL: ELTQDPAVSVALGQTVRITCSGSSGSYGWYQQKPGQAPVLVIYDNTNRPSGIPDRFSGSSSGNTASLTITGAQAEDEADYYCGGYWGSTDVFGGGTKLTVL	0.539	0.129	0.262	470	–	–
A108-IgG antibody (antibody, V domains shown, VH fused to CH1, hinge, CH2 and CH3 of human IgG4 (S228P); also called A108-IgG Ab) VH: not shown VL: ELTQDPAVSVALGQTVRITCSGSSGSYGWYQQKPGQAPVLVIYDNTNRPSGIPDRFSGSSSGNTASLTITGAQAEDEADYYCGGYDGSTDVFGGGTKLTVL	–	0.034	0.074	356	–	–
A206-IgG antibody (antibody, V domains shown, VH fused to CH1, hinge, CH2 and CH3 of human IgG4 (S228P); also called A206-IgG Ab) VH: not shown VL: ELTQDPAVSVALGQTVRITCSGRSGSYGWYQQKPGQAPVLVIYDNTNRPSGIPDRFSGSSSGNTASLTITGAQAEDEADYYCGGYWGSTDVFGGGTKLTVL	–	–	–	–	0.702	0.027
A112-IgG antibody (antibody, V domains shown, VH fused to CH1, hinge, CH2 and CH3 of human IgG4 (S228P); also called A112-IgG Ab) VH: not shown VL: ELTQDPAVSVALGQTVRITCSGRSGSYGWYQQKPGQAPVLVIYDNTNRPSGIPDRFSGSSSGNTASLTITGAQAEDEADYYCGGYDGSTDVFGGGTKLTVL	–	0.075	0.204	422	–	–
A105-IgG antibody (antibody, V domains shown, VH fused to CH1, hinge, CH2 and CH3 of human IgG4 (S228P); also called A105-IgG Ab) VH: not shown VL: ELTQDPAVSVALGQTVRITCSGSSGSYGWYQQKPGQAPVLVIYDNTNRPSGIPDRFSGSSSGNTASLTITGAQAEDEADYYCGGYDGSTDVFGGGTKLTVL	–	0.153	0.234	454	–	–
A106-IgG antibody (antibody, V domains shown, VH fused to CH1, hinge, CH2 and CH3 of human IgG4 (S228P); also called A106-IgG Ab) VH: not shown VL: ELTQDPAVSVALGQTVRITCSGSSGSYGWYQQKPGQAPVLVIYDNTNRPSGIPDRFSGSSSGNTASLTITGAQAEDEADYYCGGYDGSTDVFGGGTKLTVL	–	0.042	0.086	336	–	–
A109-IgG antibody (antibody, V domains shown, VH fused to CH1, hinge, CH2 and CH3 of human IgG4 (S228P); also called A109-IgG Ab) VH: not shown VL: ELTQDPAVSVALGQTVRITCSGSSGSYGWYQQKPGQAPVLVIYDNTNRPSGIPDRFSGSSSGNTASLTITGAQAEDEADYYCGGYDGSTDVFGGGTKLTVL	–	0.041	0.082	357	–	–
A202-IgG antibody (antibody, V domains shown, VH fused to CH1, hinge, CH2 and CH3 of human IgG4 (S228P); also called A202-IgG Ab) VH: not shown VL: ELTQDPAVSVALGQTVRITCSGRSGSYGWYQQKPGQAPVLVIYDNTNRPSGIPDRFSGSSSGNTASLTITGAQAEDEADYYCGGYWGSTDVFGGGTKLTVL	–	–	–	–	–	0.035
A204-IgG antibody (antibody, V domains shown, VH fused to CH1, hinge, CH2 and CH3 of human IgG4 (S228P); also called A204-IgG Ab) VH: not shown VL: ELTQDPAVSVALGQTVRITCSGRSGSYGWYQQKPGQAPVLVIYDNTNRPSGIPDRFSGSSSGNTASLTITGAQAEDEADYYCGGYWGSTDVFGGGTKLTVL	–	–	–	–	0.663	0.015
A102-IgG antibody (antibody, V domains shown, VH fused to CH1, hinge, CH2 and CH3 of human IgG4 (S228P); also called A102-IgG Ab) VH: not shown VL: ELTQDPAVSVALGQTVRITCSGSSGSYGWYQQKPGQAPVLVIYDNTNRPSGIPDRFSGSSSGNTASLTITGAQAEDEADYYCGGYDGSTDVFGGGTKLTVL	–	0.057	0.066	328	–	–
A103-IgG antibody (antibody, V domains shown, VH fused to CH1, hinge, CH2 and CH3 of human IgG4 (S228P); also called A103-IgG Ab) VH: not shown VL: ELTQDPAVSVALGQTVRITCSGSSGSYGWYQQKPGQAPVLVIYDNTNRPSGIPDRFSGSSSGNTASLTITGAQAEDEADYYCGGYDGSTDVFGGGTKLTVL	–	0.031	0.09	378	–	–
A211-IgG antibody (antibody, V domains shown, VH fused to CH1, hinge, CH2 and CH3 of human IgG4 (S228P); also called A211-IgG Ab) VH: not shown VL: ELTQDPAVSVALGQTVRITCSGRSGSYGWYQQKPGQAPVLVIYDNTNRPSGIPDRFSGSSSGNTASLTITGAQAEDEADYYCGGYWGSTDVFGGGTKLTVL	0.316	–	–	–	0.709	0.033
A217-IgG antibody (antibody, V domains shown, VH fused to CH1, hinge, CH2 and CH3 of human IgG4 (S228P); also called A217-IgG Ab) VH: not shown VL: ELTQDPAVSVALGQTVRITCSGSSGSYGWYQQKPGQAPVLVIYDNTNRPSGIPDRFSGSSSGNTASLTITGAQAEDEADYYCGGYWGSTDVFGGGTKLTVL	–	–	–	–	1.18	0.033
A209-IgG antibody (antibody, V domains shown, VH fused to CH1, hinge, CH2 and CH3 of human IgG4 (S228P); also called A209-IgG Ab; A209-TgG Ab) VH: not shown VL: ELTQDPAVSVALGQTVRITCSGRSGSYGWYQQKPGQAPVLVIYDNTNRPSGIPDRFSGSSSGNTASLTITGAQAEDEADYYCGGYWGSTDVFGGGTKLTVL	–	–	–	–	0.662	0.026
A104-IgG antibody (antibody, V domains shown, VH fused to CH1, hinge, CH2 and CH3 of human IgG4 (S228P); also called A104-IgG Ab) VH: not shown VL: ELTQDPAVSVALGQTVRITCSGSSGSYGWYQQKPGQAPVLVIYDNTNRPSGIPDRFSGSSSGNTASLTITGAQAEDEADYYCGGYDGSTDVFGGGTKLTVL	–	0.069	0.109	358	–	–
